Experimental findings from patent US20240262899A1 are described below.

For assay [1], the target named is citrullinated histone H3 (CitH3) peptide (human). Briefly: sandwich ELISA, Ab coated 1 ug/mL, CitH3 at 1000 pg/mL.
The target is the same in assay [2]. Nature of the assay: sandwich ELISA, Ab coated 1 ug/mL, CitH3 at 50 pg/mL. For orientation: ELISA stands for enzyme-linked immunosorbent assay.
Assay [3] has the same target. Nature of the assay: sandwich ELISA, Ab coated 1 ug/mL, CitH3 at 20000 pg/mL.
Assay [4] shares this target. Briefly: sandwich ELISA, Ab coated 1 ug/mL, CitH3 at 0 pg/mL (blank).

B1: Y1128-VH1/VL1 (antibody, V domains shown)
VH: EVQLVQSGAEVKKPGATVKISCKASGFNIKDYYMHWMQQRPGKGLEWIGWIDPENGNTIYDPKFQGRVTITSDTSTDTAYLELSSLRSEDTAVYYCAPFGNYVWFAYWGQGTLVTVSS
VL: DVVMTQSPLSLPVTLGQPASISCRSSQSIVHSNGITYLEWFQQRPGQSPRLLIYKVSNRFSGVPDRFSGSGSGTDFTLKISRVEAEDVGVYYCFQGSHVPFTFGQGTKLEIKR
For B1, the ELISA signal (raw data) was 2910 in assay [1], 2950 in assay [2], 3700 in assay [3] and 2780 in assay [4].
